Source: PMC3668531 (FEBS Open Bio, 2012)

Target: the molecule itself
Test: crystal structure; H101N crystals by vapour diffusion (7-8% PEG 20,000, 50 mM MES pH 6.3), 1 mM MnCl2 added, quick soak in 33% (w/v) L-rhamnose or D-allose; data at 100 K; four molecules (Mol-A to Mol-D) forming the tetramer

B1: mutant P. stutzeri L-RhI with a substitution of His101 with Asn (H101N) (enzyme, Pseudomonas stutzeri)
chain: MAEFRIAQDVVARENDRRASALKEDYEALGANLARRGVDIEAVTAKVEKFFVAVPSWGVGTGGTRFARFPGTGEPRGIFDKLDDCAVIQQLTRATPNVSLNIPWDKADPKELKARGDALGLGFDAMNSNTFSDAPGQAHSYKYGSLSHTDAATRAQAVEHNLECIEIGKAIGSKALTVWIGDGSNFPGQSNFTRAFERYLSAMAEIYKGLPDDWKLFSEHKMYEPAFYSTVVQDWGTNYLIAQTLGPKAQCLVDLGHHAPNTNIEMIVARLIQFGKLGGFHFNDSKYGDDDLDAGAIEPYRLFLVFNELVDAEARGVKGFHPAHMIDQSHNVTDPIESLINSANEIRRAYAQALLVDRAALSGYQEDNDALMATETLKRAYRTDVEPILAEARRRTGGAVDPVATYRASGYRARVAAERPASVAGGGGII
In the case of B1, the “stoichiometry N” value is reported as 4.
